Patent US20190216790A1, “Methods for Treating Pruritis” (The Regents of the University of California, priority 2016, published 2019)
“Also recorded” adds a separate entry of the source.

System: mice
Assay: CXCL1-induced itch, subcutaneous injection in mice
Type: in vivo
Text: CXCL1 is the mouse homologue for human Interleukin-8, which is increased in several inflammatory skin disorders including psoriasis and atopic dermatitis. […] Importantly, CXCL1-induced itch is entirely dependent on neutrophils (FIG. 1B). […] In addition, loss of TRPA1 results in reduced CXCL1 expression in skin. Blocking/ablation of the high-affinity LTB4 receptor, BLT1, also results in reduction of CXCL1-induced itch (FIG. 1C). Both LTB4 and reactive oxygen species (ROS) are produced by neutrophils and have been proposed to directly activate neurons and induce itch. It is shown here that neutrophils also play a key role in chronic itch. In a mouse model of atopic dermatitis, depletion of neutrophils during induction of itch drastically reduces itch and inflammatory responses (FIG. 1D). It is shown here that CXCL1 is increased in multiple mouse models of chronic itch, and LTB4 is increased in skin of mice with atopic dermatitis. It is proposed that neutrophils activate sensory neurons through the ion channel TRPA1 in a CXCL1/BLT1/LTB4-dependent fashion (FIG. 1E).
FIG. 1A-1E. […] (D) Depletion of neutrophils in a mouse model of atopic dermatitis greatly reduces itch. (E) Model showing proposed interactions. Atopic dermatitis results in increased levels of IL8 (humans) or CXCL1 (mice) that recruits neutrophils. Neutrophils activate sensory neurons to promote itch in a TRPA1 and BLT1-dependent manner. For all data, one-way ANOVA was performed with a Tukey-Kramer post hoc statistical analysis. Tukey-Kramer values are reported and only p<0.05 were considered significant; **=p<0.005; ***=p<0.0005; n.s.=not significant.

B1: CXCL1: a neutrophil chemoattractant and natural ligand for CXCR2; the mouse homologue for human Interleukin-8 (protein, UniProt P12850 25-96, looked up)
Growth-regulated alpha protein: APIANELRCQCLQTMAGIHLKNIQSLKVLPSGPHCTQTEVIATLKNGREACLDPEAPLVQKIVQKMLKGVPK
CXCL1-induced itch (depletion of neutrophils (FIG. 1B)): abolishes CXCL1-induced itch
itch (injected subcutaneously in mice (FIG. 1A)): robustly induces itch; also recorded: induces robust itch
itch responses to CXCL1 (mice lacking TRPA1 (FIG. 1A)): reduced itch responses
itch responses to CXCL1 injection (mice lacking the LTB4 receptor (BLT1) (FIG. 1C)): reduced itch responses
